Source: patent US12077763B2, “RNA-based control of powdery mildew” (Greenlight Biosciences, Inc., priority 2021, dated 2024)

Tested on: E. necator
Test: Leaf disc assay, dry inoculum (settling tower), decrease in disease severity / hyphal growth (Example 2)
Conditions: decrease in disease severity (hyphal growth) relative to untreated control, value ± SE; for % decrease =/− SE TP1: time point 1 (untreated control hyphal growth ≥50%); for % decrease =/− SE TP2: time point 2

Molecule | % decrease =/− SE TP1 [%] | % decrease =/− SE TP2 [%]
GS3445 (nucleic acid) sense: GAAGACCAAGCUAGAGCGAGUACAAAAACAUCCCGCAACAUAUCAAUGUCAUCUUUGCCCCAAAAAAUUUACUCGCGCCUAUAAUCUUCGCUCCCAUCUCCGAACGCAUACAAACGAGCGACCUUUUAUCUGUUCCAAGUGCACAAAAGCUUUUGCGCGUCAGCAUGAUCGAAAACGACAUGAGAGCCUACAUUCAGGUGAAAAAAGAUUUAUUUGUAGAGGAGAACUUAAAAAUGGUGGUCAUUGGGGCUGUGGCCGUCCCUUUGCUCGUGCAGAUGCCUUAAAUCGACAUUUCCGAUCGGAAGCAGGCCGAGCUUGCAUAAAUCCACUCAUAGAGGAAGACGAAUCUGAAAAUCUACGGCUAUGGAAUGAGAAACAAAUUCAAAAUAUUAAACAAA antisense: UUUGUUUAAUAUUUUGAAUUUGUUUCUCAUUCCAUAGCCGUAGAUUUUCAGAUUCGUCUUCCUCUAUGAGUGGAUUUAUGCAAGCUCGGCCUGCUUCCGAUCGGAAAUGUCGAUUUAAGGCAUCUGCACGAGCAAAGGGACGGCCACAGCCCCAAUGACCACCAUUUUUAAGUUCUCCUCUACAAAUAAAUCUUUUUUCACCUGAAUGUAGGCUCUCAUGUCGUUUUCGAUCAUGCUGACGCGCAAAAGCUUUUGUGCACUUGGAACAGAUAAAAGGUCGCUCGUUUGUAUGCGUUCGGAGAUGGGAGCGAAGAUUAUAGGCGCGAGUAAAUUUUUUGGGGCAAAGAUGACAUUGAUAUGUUGCGGGAUGUUUUUGUACUCGCUCUAGCUUGGUCUUC | 14 ± 9 | 16 ± 10
GS3361 (nucleic acid) sense: AAUAAGUGUCUGGAUUGUUGAAUGGGAUUCUUUUUAGUCGAUCAAUUUCAAUUAACUCAUAACGCAGAAAUUUCUUAAAAUUGAACGAUUUAUAGGAACCGAUGUGAAAUUUUCUUCAAUCUCCAUGUCAAUCGCAGAUGUGGGCAAAAAAGAUUGGGAAGAGAAUUCUUAGUUAUAUUUCAUUUGAAUACUAUUGGGGUAAUGCAUGUCCAAAGAGUCUCGUACCAAGAGAUACCUUUAUCUGGAAAUAAUUAGAAGAUUUACCCGUCUUACCUUGAUGAAUUGUGUGUUAGAGAUACACCAUGGCUAAGAUAUUAAUAUCUAUUUAGUUUGGGAAGUUGAUGACGAUACAUCACAGUUCUCUGUAAAUUUUGUUAUUUCCUCUAAUAUCAUUAA antisense: UUAAUGAUAUUAGAGGAAAUAACAAAAUUUACAGAGAACUGUGAUGUAUCGUCAUCAACUUCCCAAACUAAAUAGAUAUUAAUAUCUUAGCCAUGGUGUAUCUCUAACACACAAUUCAUCAAGGUAAGACGGGUAAAUCUUCUAAUUAUUUCCAGAUAAAGGUAUCUCUUGGUACGAGACUCUUUGGACAUGCAUUACCCCAAUAGUAUUCAAAUGAAAUAUAACUAAGAAUUCUCUUCCCAAUCUUUUUUGCCCACAUCUGCGAUUGACAUGGAGAUUGAAGAAAAUUUCACAUCGGUUCCUAUAAAUCGUUCAAUUUUAAGAAAUUUCUGCGUUAUGAGUUAAUUGAAAUUGAUCGACUAAAAAGAAUCCCAUUCAACAAUCCAGACACUUAUU | 16 ± 3 | –
GS3362 (nucleic acid) sense: UACCCGUCUGCAACAGGUACAGGUGGUUACGCAUCGCCAACAGGGACCAGUUACCCUACACCUACUGGAGGUUACUCUGAAGAGCCCUACCACUAUAAAGGUGUCAAGCUAGGUCAUUGAGAGGAUUGAGUUACGAAAUUUGAUUGCAGCCACGCCUUCGACUUCAACCGAGAAGAGUUCCAAUCUCCCUCUUAGACGCAGGACUACUCUCACGAUACUUCUGUCUCUACUUCUUCUCAUGAGCACGCUAAUACUCUCUAAGCCUCCGUUGAUGUGUUGAAAGACAGGCACCUCAGUUUUGAUUCUAUUCAGCUCGGCAAACAUGUUGUGUACAUUCAUAGACUGAAUUUCUUUUUUAUUAUUUUUUUCCAAAUACACUCUUCCUGGAAAAAGAAGCCCU antisense: AGGGCUUCUUUUUCCAGGAAGAGUGUAUUUGGAAAAAAAUAAUAAAAAAGAAAUUCAGUCUAUGAAUGUACACAACAUGUUUGCCGAGCUGAAUAGAAUCAAAACUGAGGUGCCUGUCUUUCAACACAUCAACGGAGGCUUAGAGAGUAUUAGCGUGCUCAUGAGAAGAAGUAGAGACAGAAGUAUCGUGAGAGUAGUCCUGCGUCUAAGAGGGAGAUUGGAACUCUUCUCGGUUGAAGUCGAAGGCGUGGCUGCAAUCAAAUUUCGUAACUCAAUCCUCUCAAUGACCUAGCUUGACACCUUUAUAGUGGUAGGGCUCUUCAGAGUAACCUCCAGUAGGUGUAGGGUAACUGGUCCCUGUUGGCGAUGCGUAACCACCUGUACCUGUUGCAGACGGGUA | 14 ± 4 | –
GS3447 (nucleic acid) sense: CAACAGCUUGAAUUGCACGGAAUUAUCACUAUCAUCCCGACUAAGCCUCUCAAAAAGCAAAAUUUAUUUGCUAGCUCGGAAAAGAUAACAGCUAGCUACGCAAAAGCUAUUCAAGAUGGUUGUUGGCAUUCAUUUUCGCCAAACUCUCAGAAAAGCUGCAACAAAUCCCCGUCAUAUAGAAAACAACUCUAAUCAGCCAGAAACUAUGUUGUCCGGAGAAAAUAUUGGGUUACUUACGGGGCGAACAUCAAACGCCCGCAAAAGUGCGUGGCGACAAAUUUACGAUGUACUCGGAAGCAAACAUUAUUCAGCCGGAAAAGAUAGUGAUAGUAAAAUUGUACGAGCUAUAGCGCCAACUAUUCAGAUUACAAAAAUUACGUUAUACAGUAAUUAUGUC antisense: GACAUAAUUACUGUAUAACGUAAUUUUUGUAAUCUGAAUAGUUGGCGCUAUAGCUCGUACAAUUUUACUAUCACUAUCUUUUCCGGCUGAAUAAUGUUUGCUUCCGAGUACAUCGUAAAUUUGUCGCCACGCACUUUUGCGGGCGUUUGAUGUUCGCCCCGUAAGUAACCCAAUAUUUUCUCCGGACAACAUAGUUUCUGGCUGAUUAGAGUUGUUUUCUAUAUGACGGGGAUUUGUUGCAGCUUUUCUGAGAGUUUGGCGAAAAUGAAUGCCAACAACCAUCUUGAAUAGCUUUUGCGUAGCUAGCUGUUAUCUUUUCCGAGCUAGCAAAUAAAUUUUGCUUUUUGAGAGGCUUAGUCGGGAUGAUAGUGAUAAUUCCGUGCAAUUCAAGCUGUUG | 35 ± 3 | –
GS3446 (nucleic acid) sense: ACCCGCAGGUACUCUUAUGCUUGGAGCUGAAGGUAUUAAAGAUGCCAUAACUGGCUUCGAAGAUGCUCGUAAAGUAGAUUUAAAGAAUGAAAGAUUGCCUCCAAGUCUUGAGGAAAUUACACGAACAAGUGAAGAGGAUAGAGCUCUGGCAUUAGAGAGGGCUAAGGAAAGUGCGGAUAAUGAUCGAGGGCUUCAGAUUUUAUCUAGAAGACUCAGUUUAGUUGGCACUCAACCAAAUAGACCGCAACCGAGUAAAAUUCUGAACUCUGUUCUAGCCCUCGAUAAAGAUGUUUCUGAGAAAUAAGAGGUCGAUCAGAGUCACCUCCUGUUACAAGCUCAUUGGUUGGUCUGCAGGUACAGAAUUACUAAUCAUACCACGA antisense: UCGUGGUAUGAUUAGUAAUUCUGUACCUGCAGACCAACCAAUGAGCUUGUAACAGGAGGUGACUCUGAUCGACCUCUUAUUUCUCAGAAACAUCUUUAUCGAGGGCUAGAACAGAGUUCAGAAUUUUACUCGGUUGCGGUCUAUUUGGUUGAGUGCCAACUAAACUGAGUCUUCUAGAUAAAAUCUGAAGCCCUCGAUCAUUAUCCGCACUUUCCUUAGCCCUCUCUAAUGCCAGAGCUCUAUCCUCUUCACUUGUUCGUGUAAUUUCCUCAAGACUUGGAGGCAAUCUUUCAUUCUUUAAAUCUACUUUACGAGCAUCUUCGAAGCCAGUUAUGGCAUCUUUAAUACCUUCAGCUCCAAGCAUAAGAGUACCUGCGGGU | 36 ± 3 | –
GS1800: dsRNA trigger SEQ ID NO 137; gene target Protein BOB1 (nucleic acid) DNA: ATCAGTCTGACTGCTATACTCACTACCAGAGTCACTGATTACCTGTCTGTCTCTATCGACAATTCCATGAGGTGATTTTAAATGAGTGATATGTTCGTCAATGACACTTAGAGTTTCATTCATTACAGGGCTATCTTGACGATGATTCTTAATATTAACAGACGAGATACTTTTTGATTGAATCGTTGTTTCAGGACTAGTAATCGTTAAGTTTGACGGAGCCTTGATACCCCGGGGCCCAAGAGTTGGTTGTATTTGAGGAGTATCTAACATTTTGAGAGGTTCTGATGGCAAGGAGACCGTATTTTCACCAGAAAAAGGAGTTTGTGGAGAAACTGTGTTGCTAGTTTTCCTTATTTTGGAATGGGAATTTTGAATGGACGATGATGCTGGCGAGCATATTAAAGATCCTCGGGGAGCTATACGTGTGTATACTTCTGGGAAGAGGCCACTCTTTCCATTTAGCAGATGACGGCCTAAAAACCATCCGTCCCCAAAATCATCATCACGTTCTATCAACTCAACGCGATCTCCTTTGGACAAGCTCAACTCATCTGAGCTACGAGCTGAGAAATCATGAACTACAAGCAAAATATGA | 22 ± 6 | 25 ± 8
GS3448 (nucleic acid) sense: GAAGAUACAAAUUUAUGCGCUAUUCAUGCUAAACGUGUUACUAUAAUGCAAAAAGACAUUCAGCUUGCAAGGCGAAUCAGAGGGGUUUGGGGUGGUUUAGGCUAGCUUUUUUAUUCUAAAUAUACCAGUGCCCGAAUUUGAUCUCCCUAAGCCACACCAUCGAGUUGAAAUGAUGAGAGGAAGAUGACGAGAAUAAAAUUAUUGUGAAUAUUCGUUAUAUGGAUAAGCGUAGAGGGGAUCUAAUACUUGUGAAUUGGUAAUCUUGAGUUAUCACUUUUUCUGGCGCAUCCAGCGACCCUAAGCAUAUGGACACUAGUGAUUGCGUCUUAGGGUUAUAGUAGCCAAGAGGAAUUUGAAGCACACAUAUUAGCACAGCAUAAUAAUAAAUAA antisense: UUAUUUAUUAUUAUGCUGUGCUAAUAUGUGUGCUUCAAAUUCCUCUUGGCUACUAUAACCCUAAGACGCAAUCACUAGUGUCCAUAUGCUUAGGGUCGCUGGAUGCGCCAGAAAAAGUGAUAACUCAAGAUUACCAAUUCACAAGUAUUAGAUCCCCUCUACGCUUAUCCAUAUAACGAAUAUUCACAAUAAUUUUAUUCUCGUCAUCUUCCUCUCAUCAUUUCAACUCGAUGGUGUGGCUUAGGGAGAUCAAAUUCGGGCACUGGUAUAUUUAGAAUAAAAAAGCUAGCCUAAACCACCCCAAACCCCUCUGAUUCGCCUUGCAAGCUGAAUGUCUUUUUGCAUUAUAGUAACACGUUUAGCAUGAAUAGCGCAUAAAUUUGUAUCUUC | 19 ± 3 | –
